Here are results for 5 molecules from publication PMC2875008.

Like-named read-outs stand apart in the source and are kept apart here.

Data set [1] has as its target T1, hRad52 (Homo sapiens, UniProt P43351 1-418).
T1 sequence: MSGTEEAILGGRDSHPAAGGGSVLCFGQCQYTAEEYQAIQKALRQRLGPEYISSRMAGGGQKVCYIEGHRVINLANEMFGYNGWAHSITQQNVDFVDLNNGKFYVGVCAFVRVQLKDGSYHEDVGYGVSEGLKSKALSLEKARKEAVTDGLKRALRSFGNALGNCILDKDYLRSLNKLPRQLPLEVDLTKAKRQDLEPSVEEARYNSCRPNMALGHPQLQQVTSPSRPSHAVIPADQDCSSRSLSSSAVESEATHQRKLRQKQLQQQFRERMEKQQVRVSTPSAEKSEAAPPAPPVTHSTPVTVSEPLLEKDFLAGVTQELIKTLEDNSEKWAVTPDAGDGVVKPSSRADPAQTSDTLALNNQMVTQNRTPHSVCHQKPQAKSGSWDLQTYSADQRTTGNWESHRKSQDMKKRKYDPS
Kind of data set: EMSA. (In general: In EMSA bound probe runs differently from free probe, usually more slowly.)

Data set [2] addresses T2, hRad52 1-212 (Homo sapiens, UniProt P43351 1-212).
T2 sequence: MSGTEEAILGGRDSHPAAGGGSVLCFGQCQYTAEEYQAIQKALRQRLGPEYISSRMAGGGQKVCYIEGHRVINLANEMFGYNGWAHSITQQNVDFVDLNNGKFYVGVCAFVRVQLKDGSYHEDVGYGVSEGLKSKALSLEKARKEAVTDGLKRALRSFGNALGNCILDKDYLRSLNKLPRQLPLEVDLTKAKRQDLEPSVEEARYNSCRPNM
Kind of data set: FRET titration.

The target of data set [3] is T3, hRPA (Homo sapiens, UniProt P27694;P15927;P35244 1-616;1-270;1-121). The data set is described as follows: FRET titration.
Data set [4] addresses T2, hRad52 1-212. The data set is described as follows: FRET titration. The source holds these as a separate data set.
Data set [5] concerns the target T3, hRPA. The data set is described as follows: FRET titration. The source holds these as a separate data set.
Data set [6] concerns the target T1, hRad52. Kind of data set: FRET titration.
The target in data set [7] is T1, hRad52. Kind of data set: FRET titration. This is another data set of the same source.
For data set [8], the target named is T1, hRad52. Kind of data set: FRET titration. This is another data set of the same source.

T3 sequence (P27694 whole entry, chain 1 of 3): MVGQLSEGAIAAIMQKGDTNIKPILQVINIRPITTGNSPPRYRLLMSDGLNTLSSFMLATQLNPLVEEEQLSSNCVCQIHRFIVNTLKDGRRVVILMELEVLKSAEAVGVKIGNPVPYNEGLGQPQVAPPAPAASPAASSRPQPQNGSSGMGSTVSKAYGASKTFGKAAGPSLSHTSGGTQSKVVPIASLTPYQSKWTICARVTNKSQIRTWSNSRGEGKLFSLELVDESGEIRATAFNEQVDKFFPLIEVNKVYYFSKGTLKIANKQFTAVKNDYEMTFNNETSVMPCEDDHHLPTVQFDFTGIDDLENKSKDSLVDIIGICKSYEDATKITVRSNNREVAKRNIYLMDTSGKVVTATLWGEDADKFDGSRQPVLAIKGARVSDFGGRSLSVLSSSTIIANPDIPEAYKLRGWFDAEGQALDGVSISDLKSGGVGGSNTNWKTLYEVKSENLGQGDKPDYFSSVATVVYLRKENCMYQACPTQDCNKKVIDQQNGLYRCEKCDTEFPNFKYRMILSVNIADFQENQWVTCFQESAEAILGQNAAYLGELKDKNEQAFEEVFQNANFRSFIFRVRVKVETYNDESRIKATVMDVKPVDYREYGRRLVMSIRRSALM
T3 sequence (P15927 whole entry, chain 2 of 3): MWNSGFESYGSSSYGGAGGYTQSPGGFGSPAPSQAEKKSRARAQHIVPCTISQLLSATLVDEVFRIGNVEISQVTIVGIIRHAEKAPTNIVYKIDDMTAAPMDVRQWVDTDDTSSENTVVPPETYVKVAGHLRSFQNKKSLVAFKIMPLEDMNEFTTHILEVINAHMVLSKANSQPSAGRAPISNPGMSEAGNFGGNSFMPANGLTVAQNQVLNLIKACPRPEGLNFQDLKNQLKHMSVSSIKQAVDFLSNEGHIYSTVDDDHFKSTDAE
T3 sequence (P35244 whole entry, chain 3 of 3): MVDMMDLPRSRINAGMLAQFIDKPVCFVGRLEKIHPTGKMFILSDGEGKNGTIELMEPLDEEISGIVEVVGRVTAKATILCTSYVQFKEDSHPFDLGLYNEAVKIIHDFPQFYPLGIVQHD

For TTTTTTTTTTTTTTTTTTTTTTTTTTTTTT (ssDNA) [poly(dT)-30], the binding result with hRad52 [1], in the data set with hRad52 1-212 [2] and in the data set with hRPA [3] was “binds” throughout.

B1: poly(dT)-60 (ssDNA)
DNA: TTTTTTTTTTTTTTTTTTTTTTTTTTTTTTTTTTTTTTTTTTTTTTTTTTTTTTTTTTTT
Regarding B1, the binding result with hRad52 1-212 [4], in the data set with hRPA [5] and in the data set with hRad52 [6] was “binds” in each case. On to TTTTTTTTTTTTTTTTTTTTTTTTTTTTTTTTTTTTTTT (ssDNA) [poly(dT)-39], for which the binding result with hRad52 [7] is listed as “binds”. With TTTTTTTTTTTTTTTTTTTTTTTTTTTTTTTTTTTTTTTTTTTTTTTTTT (ssDNA) [poly(dT)-50], the binding result in the data set with hRad52 [7] is “binds”. For the molecule TTTTTTTTTTTTTTTTTTTTTT (ssDNA) [poly(dT)-22], the binding result with hRad52 [8] is on record as “binds”.
